Measurements from patent publication US5716622.

Target: Stat1α (human)
Assay: co-immunoprecipitation with anti-FLAG M2 from COS cells with or without EGF, blot with Stat1 antiserum

amount of Stat1 coprecipitated, treated cells against untreated cells: 5 fold
Substance: FLAG-tagged Stat3
